From article PMC9372627

Tests used:
Trio_(1284-2638) (human) = Trio_(1284-2638) (human) (UniProt O75962)

RhoA GEF activity (FRET-based nucleotide exchange assay with MANT-GTP), enhancement by 200 nM Gαq·GDP·AlF4^- (TrioC (human)): 2.5 fold | RhoA GEF activity (FRET-based nucleotide exchange assay with MANT-GTP), enhancement by 200 nM Gαq·GDP·AlF4^- (Trio_(1284-2638) (human)): 2.5 fold
Substance: Gαq·GDP·AlF4^- (from UniProt P21279 1-359) (natural protein)
